Experiment [1] has as its target thrombin (aqueous liquid purified and concentrated thrombin) (UniProt P00734 44-622; P00734 44-622). Description: cell-based or functional assay.
The target in experiment [2] is T1, Fluorescein-labeled cyclic gamma-loop derived peptide (disulfide 1-12; also: fluorescein label, site not given here).
T1 construct: also called fluorescent gamma loop peptide
T1 peptide: CKETWTANVGKC
As to the kind of experiment: peptide microarray, immobilised 15-mer probed with fluorescein-labelled cyclic gamma-loop peptide; fluorescence scale 0-65535. The text has this: Peptides were synthesized using SPOT synthesis (Wenschuh H, et al. (2000). Coherent membrane supports for parallel microsynthesis and screening of bioactive peptides. Biopolymers 55:188-206) and were chemoselectively immobilized onto functionalized glass slides as described (Panse S, et al. (2004) Profiling of generic anti-phosphopeptide antibodies and kinases with peptide microarrays using radioactive and fluorescence-based assays. Mol Divers 8:291-299.2.). Each peptide was printed in triplicates onto the microarray. For binding studies, 100 ng of purified thrombin (Omrix biopharmaceuticals) were directly labeled with DyLight 650 (DyLight® Microscale Antibody Labeling Kits, Thermo Scientific, #84536) and diluted in blocking buffer (SuperBlockT20 (TBS) Blocking Buffer, Thermo Scientific, #37536). The microarrays were incubated with 10 μg/ml DyLight 650-Thrombin or a Fluorescein-labeled cyclic gamma-loop derived peptide for one hour at 30° C. in a HS4800 microarray processing station (Tecan) (Masch A, et al., (2010) Antibody signatures defined by high-content peptide microarray analysis. Methods Mol Biol 669:161-172).
Microarrays were washed with 0.1% Tween-20 in 1×TBS followed by 0.05% Tween-20 in 0.1×SSC and dried in a stream of nitrogen. Each microarray was scanned using GenePix Autoloader 4200AL (Molecular Devices, Pixel size: 10 μm). Signal intensities were evaluated using spot recognition software Genepix Pro 7.0 analysis software (Molecular Devices). For each peptide, the mean signal intensity of the three triplicates was extracted. Further evaluation and representation of results was performed using the statistical computing and graphics software R (Version 2.11.1, www.r-project.org).
One array included peptides based on the thrombin sequence. Any peptide isolated from this library may reflect possible regions in the thrombin protein that may interact with the gamma loop. […] The fluorescence for the strongest binding candidates (hits) was quantified on an arbitrary scale of 0-65535 (2¹⁶). Thrombin activity was assessed as described in Example 1.

Bridges are numbered along the chain shown (N, C = ends). Where no end group is shown, it is not given here.

B1: linear gamma peptide (SEQ ID NO:1) (peptide)
peptide: KETWTANVGK
Consider B1, for which the “inhibition of thrombin clotting activity at 0.5 mM peptide” value in experiment [1] is about 20%.

B2: cyclic gamma peptide (peptide)
peptide: CKETWTANVGKC
modifications: disulfide 1-12
Regarding B2, in experiment [1], the “inhibition of thrombin clotting activity at 0.5 mM peptide” value was about 7%.

B3: Thr_031_CS (peptide)
peptide: NITRSGIESQLWRSR
notes: Thrombin derived 15-mer in which Cysteine residues have been replaced by Serine
For the molecule B3, the “Binding intensity of gamma loop” value in experiment [2] came to 40800 arbitrary units.

B4: Rnd_inter_316 (peptide)
peptide: LGNKKFVSGSRFVST
notes: 15-mer from the random peptide array; also called Rnd316; Rnd 316
As to B4, in experiment [2], the “Binding intensity of gamma loop” value stood at 26600 arbitrary units.

B5: Thr_111 (peptide)
peptide: ISMLEKIYIHPRYNW
notes: 15-mer from the thrombin derived peptide array
Turning to B5, the “Binding intensity of gamma loop” value in experiment [2] worked out at 32800 arbitrary units.

B6: Thr_069 (peptide)
peptide: WCYVAGKPGDFGYCD
notes: 15-mer from the thrombin derived peptide array; also called thrombin derived peptide Thr-069
Take B6: the “Binding intensity of gamma loop” value in experiment [2] came to 50600 arbitrary units.

B7: Thr_136_CS (peptide)
peptide: RIRITDNMFSAGYKP
notes: as for B3
For the molecule B7, in experiment [2], the “Binding intensity of gamma loop” value was found to be 25300 arbitrary units.

B8: Thr_032_CS (peptide)
peptide: SGIESQLWRSRYPHK
notes: as for B3
In the case of B8, in experiment [2], the “Binding intensity of gamma loop” value is 35100 arbitrary units.

B9: Rnd_inter_155 (peptide)
peptide: SHNQRFVTYLGSKLG
notes: 15-mer from the random peptide array; also called Rnd155; Random2
On to B9, for which, in experiment [2], the “Binding intensity of gamma loop” value was found to be 19500 arbitrary units.

The record behind these values is patent US20150118213A1 (OMRIX BIOPHARMACEUTICALS, published 2015).
